Data published in the nanobody polyreactivity screen of Harvey et al. (2022).

Experiment: yeast display, Sf9 membrane polyspecificity reagent, FACS + sequencing; frameworks hold sequencing errors
Procedure, shortened: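 Polyreactivity labels are assigned by the sorting gate from which each nanobody was recovered. The gates were low and high (top ~1%), set on anti-HA fluorescence for expression and streptavidin fluorescence for reagent binding. Before sorting, galactose-induced (36–48 hours) yeast display cells were stained for 1 hour at 4 °C with 10% biotinylated, detergent-solubilized Sf9 membrane reagent.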

Sequence	polyreactivity (PSR sort gate)
QVQLVESGGGLVQAGGSLRLSCAASGRIFGFYGMGWYRQAPGKERELVAAITNRVGSTYYADSVKGRFTISRDNAKNTVYLHMHSLKPEDTAVYSCARRSGWWTRMDSWGQGTQVTVSS	high polyreactivity
QVQLVESGGGLVQAGGSLRLSCAASGRIFGGNALGWYRQAPGYARALVAAISWIGGTTYYADSVKGRFTISRDNAKNTVYLQMNSLKPEDTAVYYCAAYRYRPHVHRYYRYDYWGQGTQVTVSS	high polyreactivity
QVQLVESGGGLVQAGGSLRLSCAASGRIFGGNTMGWYRQAPGKEREFVAAITQSGTRTYYADSVKGRFTISRDNAKNTVYLQMNSLKPEDTAVYYCAAEGYWYPYDYWGQGTQVTVSS	high polyreactivity
QVQLVESGGGLVQAGGSLRLSCAASGRIFGGNTMGWYRQAPGKEREFVAAITQSGTRTYYADSVKGRFTISRDNAKNTVYLQRNSLKPEDTAVDYCAAEGYWYPYDYWRQGTQVTVSS	high polyreactivity
QVQLVESGGGLVQAGGSLRLSCAASGRIFGGYAMGGDRQAPGKERELVAVISGRGGSTYYADSVKGRFTISRDNAKNTVYLQMNSLKPEDTAVYYCTVYRRIQRYGPQSYDYWGQGTQVTVSS	high polyreactivity
QVQLVESGGGLVQAGGSLRLSCAASGRIFGGYAMGWYRPAPGKERELVAAISWRGGTTYYADSVKGRFTISRDNAKNTVYLQMNSLKPEDTAVYYCNADVVRYRHWHRGDYWGQGTQVTVSS	low polyreactivity
QVQLVESGGGLVQAGGSLRLSCAASGRIFGGYAMGWYRQAPGKERELVAAISSGGNTKYADSVKGRFTISRDNAKNTVYLQMNSLKPEDTAVYYCAAAPYARREYEYWGQVTQVTVSS	high polyreactivity
QVQLVESGGGLVQAGGSLRLSCAASGRIFGGYAMGWYRQAPGKERELVAAISSSGGRTYYADSVKGRFTISRDNSKKTVYLQMNSLKPEDTAVYYCNAGAGQRVSGHSFEDWGQGTQVTVSS	high polyreactivity
QVQLVESGGGLVQAGGSLRLSCAASGRIFGINAMGWYRQAPGKERELVAAINWSGGSTYYADSVKGRFTISRDNAKNTVYIQMNSLKPEDSAVYYCAAQKYKRVGYWGQGTQVTVSS	high polyreactivity
QVQLVESGGGLVQAGGSLRLSCAASGRIFGIYAMGGSRQAPGKERELVASITDGTITYYADSVKGRFTISRDNAKNTVYLQMNSLKPEDTAVYYCAAGTQAHAYVVRPIEMDYWGQGTQVTVSS	low polyreactivity
QVQLVESGGGLVQAGGSLRLSCAASGRIFGIYAMGWYRQAPGKERELVARITGGGSTNYADSVKARFTISRDNEKNTVYLQMNSLKPEDTAVYYCASTVRRIVGNITRYDYWGQGTQLTVSS	low polyreactivity
QVQLVESGGGLVQAGGSLRLSCAASGRIFGIYAMGWYRQAPGKERELVATITDSDDSTYYADSVKGRFTISRDNAKNTVYLQMNSLKPEDTAVYYCATAFSYGGGAYDYWGQGTQVTVSS	low polyreactivity
QVQLVESGGGLVQAGGSLRLSCAASGRIFGKNAMGWYRQAPGKERELVAAISSSGGSTYYADSVKGRFTISRDNAKNTVYLQMNSLKPEDTAVYYCAAGVTRGMDYWGQGTQVTVSS	high polyreactivity
QVQLVESGGGLVQAGGSLRLSCAASGRIFGKNDMGWYRQAPGKETEFVATIDWSGGSTYYADSVKGRFTISRDNAKNTVYLQMNSLKPEDTAVYYCAASGWNRYLFDYWGQGTQVTVSS	low polyreactivity
QVQLVESGGGLVQAGGSLRLSCAASGRIFGLNAMGWYRQAPGKEREFVAAIRWRGGSTYYADSVKGRFTISRDNAKNTVYLQMNSLKPEDTAVYYCAADRNLGVSRYGYWGQGTQVTVSS	high polyreactivity
QVQLVESGGGLVQAGGSLRLSCAASGRIFGLNGMGWSRQAPGKERELVARISSVGSTYSADSVKGRFTISRDNAKNTVDLQKNSLTPEDTSVYYCNRRRSRYLPTPDRIVEYDYWGQGTQVTVSS	low polyreactivity
QVQLVESGGGLVQAGGSLRLSCAASGRIFGLYAMGWYRQAPGKERELVARITRGGSTYADSVKGRFTISRDNAKNSVYLQMNSLKPEDTAVYYCNAEWIVRNSGDYEYWGQGTQVTVSS	high polyreactivity
QVQLVESGGGLVQAGGSLRLSCAASGRIFGNNAMGWYRQAPGKVRELVAAIRSRGTRTYYADSVKGRFTISRDNAKNTVNLQMNSLKPEDPAVYYCATTSLTGLYDRYDYWGQGTQVTVSS	high polyreactivity
QVQLVESGGGLVQAGGSLRLSCAASGRIFGNTAMGWYRQAPGKERELVAAIRSRGTRTYYADSVKGRFTISRDNAKNTVYLQMNSLKPEDTAVYYCATTSLTGRYDRYDYWGQGTQVTVSS	high polyreactivity
QVQLVESGGGLVQAGGSLRLSCAASGRIFGNYAMGWYRQAPGKERELVAAISGGGSTYYADSVKGRFTISRDKAKNTVYLQMNSLKPEDTAVYYCAARFLWSVFGRKGGYWGQGTQVTVSS	low polyreactivity
QVQLVESGGGLVQAGGSLRLSCAASGRIFGNYAMGWYRQAPGKERELVASISRRGGSTYYADSVKGRFTISRDNAKNTVYLQMIRLKPEDTAVYYCATLRGRLRFGYDYWGQGTQVTVSS	high polyreactivity

Sequence	polyreactivity (PSR sort gate)
QVQLVESGGGLVQAGGSLRLSCAASGRIFGNYYKVWFRQAPGKERDLVAAISGGGSTYYADSVKGRFTISRDNAKNTVYLQMNSLKPEDTGVYYCAARFLWSVFGRKGGYWGQGTQVTVSS	low polyreactivity
QVQLVESGGGLVQAGGSLRLSCAASGRIFGPYAMGWSRQAPGKERELVATITWRTGSTYYADSVKGRFTISRDNAKNTVYLQMNSLKPEDTEVYYSAARYGRYSKAGDYWGQGTQVTVSS	high polyreactivity
QVQLVESGGGLVQAGGSLRLSCAASGRIFGPYAMGWYRQAPGKERELVAAISFSGSGTYYADSVKGRFTISRDNAKNTVYFQMNSLKPEDTAVYYCAATSRKIVAYDHDYWGQGTQVTVSS	low polyreactivity
QVQLVESGGGLVQAGGSLRLSCAASGRIFGPYAMGWYRQAPGKERELVAAITRGGSTSYADSVKGRFTISRDNAKNTVDLQMISLKTEDTAVDYCAADTLRWWYGFDYWGQGTQVTVSS	low polyreactivity
QVQLVESGGGLVQAGGSLRLSCAASGRIFGPYTMGWYRQAPGKERELVAAIRSSGTSTYYADSVKGRFTISRDNAKNTVYLQMNSLKPEDTAVYYCNRARSSSRYDYWGQGTQVTVSS	low polyreactivity
QVQLVESGGGLVQAGGSLRLSCAASGRIFGPYVMGWYRQAPGKERDFVAAISRRTGSTYYADSVKGRFTISRDNAKNTVYLQMNSLKPEDTAVYYCAATYYFSHVVGYGYWGQGTQVTVSS	high polyreactivity
QVQLVESGGGLVQAGGSLRLSCAASGRIFGQNAMGWYRQAPGKERELVASITTSGSSTNYADSVKGRFTISRDNAKNTVYLQMNSLKPEDTAVYYCAADYVSPDPDELHDYSGYYYWGQGTQVTVSS	high polyreactivity
QVQLVESGGGLVQAGGSLRLSCAASGRIFGRNAMGWYRQAPGKERELVAAISSGGGRTYYADSVKGRFTISRDNAKNTVYLQMNSLKPEDTSVYYCAAEDWYEYDYWGQGTQVTVSS	high polyreactivity
QVQLVESGGGLVQAGGSLRLSCAASGRIFGRNAMGWYRQAPGKERELVAAISSSGGRTYYADSVKGRFSISRDNAKNTVYLQMMSLKPEDTAVYYCAAVGSLYYYRYDYWGQGTQVTVSS	high polyreactivity
QVQLVESGGGLVQAGGSLRLSCAASGRIFGRNAMGWYRQAPGKERELVAAISSSGRTYYADSVKGRFTISRDNAKNTVYLQMNSLKPEDTAVYYCAAYGYSWGQGTQVTVSS	high polyreactivity
QVQLVESGGGLVQAGGSLRLSCAASGRIFGRNAMGWYRQAPGKERELVASITSGGGTNYADSVKGRFTISRDNAKNTVYLQMNCLKPEDTAVYYCAAKRHLEGYSGSIGRYYYWGQGTQVTVSS	low polyreactivity
QVQLVESGGGLVQAGGSLRLSCAASGRIFGRNTMGWYRQAPGKERELVAAISYSAGSTYYADSVKGRFTISRDNAKNTVYLQMNSLKPEDTAVYYCAAGYIRTTYRTNRYGYWGQGTQVTVSS	high polyreactivity
QVQLVESGGGLVQAGGSLRLSCAASGRIFGRYAMGGSRQAPGKERELVAAITSSGGNTYYADSVKGRFTISRDNAKNTVYLQMNSLKPEDTAVYYCNALSARSRLQSDYWGQGTQVTVSS	high polyreactivity
QVQLVESGGGLVQAGGSLRLSCAASGRIFGRYAMGWYRPAPGKEREFVAAISKRGGGTYYADSVKGRFTISRDNAKNTVYLQMNSLKPEDTAVYYCAVDNSPGFDDYDYWGQGTQVTVSS	high polyreactivity
QVQLVESGGGLVQAGGSLRLSCAASGRIFGRYAMGWYRQAPGKEREFVAAISKRGGGTYYADSVKGRFTISRDNAKNTVYLQMISLKPEDTAVYYCAVDNSPGFDDYDYWGQGTQVTVSS	high polyreactivity
QVQLVESGGGLVQAGGSLRLSCAASGRIFGRYAMGWYRQAPGKERELVAAISSGGNTYYADSVKGRFTISRDNAKNTVYLQMISLKPEDTAVYYCNALYYRPPGYDYWGQGTQLTVSS	high polyreactivity
QVQLVESGGGLVQAGGSLRLSCAASGRIFGRYAMGWYRQAPGKERELVAVISARGARTYYADSVKGRFTISRDNAKNTVYLQRNSLKPEDTAVYYCAVDQYATDDYWGQGTQVTVSS	high polyreactivity
QVQLVESGGGLVQAGGSLRLSCAASGRIFGRYAMGWYRQAPGQERELVAGISARGGSTYYADSVKGRFTISRDNAKNTVYLQMNSLKPDDTAVYYCAAYAGFSDQAGYFYWGQGTQVTVSS	high polyreactivity
QVQLVESGGGLVQAGGSLRLSCAASGRIFGSNAMGWYRQAPGKERELVAAISWRGASTYYADSVKGRFTISRDNAKNTVYLQMNSLIPEDTAVYYCFLRGRATQWDFGYWGQGTQVTVSS	high polyreactivity
QVQLVESGGGLVQAGGSLRLSCAASGRIFGSYAMGWYRQAPGKERELVASISGSGTSTYYADSVKGRFTISRDNAKNTVYLQMNSLKPEDTAVYYCARYVRYYPSKFYYWGQGTQVTVSS	high polyreactivity
